Numbered stars: 1 amine (or outer) side, 2 acyl side, 3 side chain; on linkers, the order of the positions; unused ones are H or OH. Square brackets hold non-standard residues; d marks the D form. Side chains are listed from the residue outwards. Ends that are not written are not given here. * marks the point of attachment. C20 diacid = O=C(O)CCCCCCCCCCCCCCCCCCC(=O)*; γGlu = O=C(O)[C@H](CCC(=O)[*:2])N[*:1]; AEEA = NCCOCCOCC(=O)O; Aib = CC(C)(N)C(=O)O
T1: human GIP receptor (human, UniProt P48546 22-466)
T1 sequence (looked up): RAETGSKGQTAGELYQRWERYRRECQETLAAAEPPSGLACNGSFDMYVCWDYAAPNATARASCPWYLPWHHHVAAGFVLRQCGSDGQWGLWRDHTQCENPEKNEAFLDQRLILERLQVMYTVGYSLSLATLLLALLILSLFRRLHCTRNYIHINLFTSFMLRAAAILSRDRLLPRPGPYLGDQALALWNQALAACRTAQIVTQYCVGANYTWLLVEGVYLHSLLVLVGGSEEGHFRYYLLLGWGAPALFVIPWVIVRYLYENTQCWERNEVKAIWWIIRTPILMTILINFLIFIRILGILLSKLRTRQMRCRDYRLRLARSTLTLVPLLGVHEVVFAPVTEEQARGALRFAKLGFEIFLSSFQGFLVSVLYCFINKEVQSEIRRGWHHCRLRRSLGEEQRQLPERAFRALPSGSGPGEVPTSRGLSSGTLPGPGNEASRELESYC

B1: Example 48 (peptide)
peptide: Y[Aib]EGTFTSDYSILLDKIAQ[Aib]AFIEYLIEGGPSSGAPPPK([AEEA-AEEA-γGlu-C20 diacid])-NH2
modifications: N-terminus assumed
SMILES: CC[C@H](C)[C@H](NC(=O)[C@H](CCCCN)NC(=O)[C@H](CC(=O)O)NC(=O)[C@H](CC(C)C)NC(=O)[C@H](CC(C)C)NC(=O)[C@@H](NC(=O)[C@H](CO)NC(=O)[C@H](Cc1ccc(O)cc1)NC(=O)[C@H](CC(=O)O)NC(=O)[C@H](CO)NC(=O)[C@@H](NC(=O)[C@H](Cc1ccccc1)NC(=O)[C@@H](NC(=O)CNC(=O)[C@H](CCC(=O)O)NC(=O)C(C)(C)NC(=O)[C@@H](N)Cc1ccc(O)cc1)[C@@H](C)O)[C@@H](C)O)[C@@H](C)CC)C(=O)N[C@@H](C)C(=O)N[C@@H](CCC(N)=O)C(=O)NC(C)(C)C(=O)N[C@@H](C)C(=O)N[C@@H](Cc1ccccc1)C(=O)N[C@H](C(=O)N[C@@H](CCC(=O)O)C(=O)N[C@@H](Cc1ccc(O)cc1)C(=O)N[C@@H](CC(C)C)C(=O)N[C@H](C(=O)N[C@@H](CCC(=O)O)C(=O)NCC(=O)NCC(=O)N1CCC[C@H]1C(=O)N[C@@H](CO)C(=O)N[C@@H](CO)C(=O)NCC(=O)N[C@@H](C)C(=O)N1CCC[C@H]1C(=O)N1CCC[C@H]1C(=O)N1CCC[C@H]1C(=O)N[C@@H](CCCCNC(=O)COCCOCCNC(=O)COCCOCCNC(=O)CC[C@H](NC(=O)CCCCCCCCCCCCCCCCCCC(=O)O)C(=O)O)C(N)=O)[C@@H](C)CC)[C@@H](C)CC
B2: Example 50 (peptide)
peptide: Y[Aib]EGTFTSDYSILLDKK([AEEA-AEEA-γGlu-C20 diacid])AQ[Aib]AFIEYLIEGGPSSG-NH2
modifications: N-terminus assumed
SMILES: CC[C@H](C)[C@H](NC(=O)[C@H](CC(C)C)NC(=O)[C@H](Cc1ccc(O)cc1)NC(=O)[C@H](CCC(=O)O)NC(=O)[C@@H](NC(=O)[C@H](Cc1ccccc1)NC(=O)[C@H](C)NC(=O)C(C)(C)NC(=O)[C@H](CCC(N)=O)NC(=O)[C@H](C)NC(=O)[C@H](CCCCNC(=O)COCCOCCNC(=O)COCCOCCNC(=O)CC[C@H](NC(=O)CCCCCCCCCCCCCCCCCCC(=O)O)C(=O)O)NC(=O)[C@H](CCCCN)NC(=O)[C@H](CC(=O)O)NC(=O)[C@H](CC(C)C)NC(=O)[C@H](CC(C)C)NC(=O)[C@@H](NC(=O)[C@H](CO)NC(=O)[C@H](Cc1ccc(O)cc1)NC(=O)[C@H](CC(=O)O)NC(=O)[C@H](CO)NC(=O)[C@@H](NC(=O)[C@H](Cc1ccccc1)NC(=O)[C@@H](NC(=O)CNC(=O)[C@H](CCC(=O)O)NC(=O)C(C)(C)NC(=O)[C@@H](N)Cc1ccc(O)cc1)[C@@H](C)O)[C@@H](C)O)[C@@H](C)CC)[C@@H](C)CC)C(=O)N[C@@H](CCC(=O)O)C(=O)NCC(=O)NCC(=O)N1CCC[C@H]1C(=O)N[C@@H](CO)C(=O)N[C@@H](CO)C(=O)NCC(N)=O
B3: Example 47 (peptide)
peptide: Y[Aib]EGTFTSDYSILLDKIAQ[Aib]AFIEYLIEGGPSSGAPPK([AEEA-AEEA-γGlu-C20 diacid])S-NH2
modifications: N-terminus assumed
SMILES: CC[C@H](C)[C@H](NC(=O)[C@H](CCCCN)NC(=O)[C@H](CC(=O)O)NC(=O)[C@H](CC(C)C)NC(=O)[C@H](CC(C)C)NC(=O)[C@@H](NC(=O)[C@H](CO)NC(=O)[C@H](Cc1ccc(O)cc1)NC(=O)[C@H](CC(=O)O)NC(=O)[C@H](CO)NC(=O)[C@@H](NC(=O)[C@H](Cc1ccccc1)NC(=O)[C@@H](NC(=O)CNC(=O)[C@H](CCC(=O)O)NC(=O)C(C)(C)NC(=O)[C@@H](N)Cc1ccc(O)cc1)[C@@H](C)O)[C@@H](C)O)[C@@H](C)CC)C(=O)N[C@@H](C)C(=O)N[C@@H](CCC(N)=O)C(=O)NC(C)(C)C(=O)N[C@@H](C)C(=O)N[C@@H](Cc1ccccc1)C(=O)N[C@H](C(=O)N[C@@H](CCC(=O)O)C(=O)N[C@@H](Cc1ccc(O)cc1)C(=O)N[C@@H](CC(C)C)C(=O)N[C@H](C(=O)N[C@@H](CCC(=O)O)C(=O)NCC(=O)NCC(=O)N1CCC[C@H]1C(=O)N[C@@H](CO)C(=O)N[C@@H](CO)C(=O)NCC(=O)N[C@@H](C)C(=O)N1CCC[C@H]1C(=O)N1CCC[C@H]1C(=O)N[C@@H](CCCCNC(=O)COCCOCCNC(=O)COCCOCCNC(=O)CC[C@H](NC(=O)CCCCCCCCCCCCCCCCCCC(=O)O)C(=O)O)C(=O)N[C@@H](CO)C(N)=O)[C@@H](C)CC)[C@@H](C)CC
B4: Example 45 (peptide)
peptide: Y[Aib]EGTFTSDYSILLDKIAQ[Aib]AFIEYLIEGGPSSGAK([AEEA-AEEA-γGlu-C20 diacid])PPS-NH2
modifications: N-terminus assumed
SMILES: CC[C@H](C)[C@H](NC(=O)[C@H](CCCCN)NC(=O)[C@H](CC(=O)O)NC(=O)[C@H](CC(C)C)NC(=O)[C@H](CC(C)C)NC(=O)[C@@H](NC(=O)[C@H](CO)NC(=O)[C@H](Cc1ccc(O)cc1)NC(=O)[C@H](CC(=O)O)NC(=O)[C@H](CO)NC(=O)[C@@H](NC(=O)[C@H](Cc1ccccc1)NC(=O)[C@@H](NC(=O)CNC(=O)[C@H](CCC(=O)O)NC(=O)C(C)(C)NC(=O)[C@@H](N)Cc1ccc(O)cc1)[C@@H](C)O)[C@@H](C)O)[C@@H](C)CC)C(=O)N[C@@H](C)C(=O)N[C@@H](CCC(N)=O)C(=O)NC(C)(C)C(=O)N[C@@H](C)C(=O)N[C@@H](Cc1ccccc1)C(=O)N[C@H](C(=O)N[C@@H](CCC(=O)O)C(=O)N[C@@H](Cc1ccc(O)cc1)C(=O)N[C@@H](CC(C)C)C(=O)N[C@H](C(=O)N[C@@H](CCC(=O)O)C(=O)NCC(=O)NCC(=O)N1CCC[C@H]1C(=O)N[C@@H](CO)C(=O)N[C@@H](CO)C(=O)NCC(=O)N[C@@H](C)C(=O)N[C@@H](CCCCNC(=O)COCCOCCNC(=O)COCCOCCNC(=O)CC[C@H](NC(=O)CCCCCCCCCCCCCCCCCCC(=O)O)C(=O)O)C(=O)N1CCC[C@H]1C(=O)N1CCC[C@H]1C(=O)N[C@@H](CO)C(N)=O)[C@@H](C)CC)[C@@H](C)CC
B5: Example 46 (peptide)
peptide: Y[Aib]EGTFTSDYSILLDKIAQ[Aib]AFIEYLIEGGPSSGAPK([AEEA-AEEA-γGlu-C20 diacid])PS-NH2
modifications: N-terminus assumed
SMILES: CC[C@H](C)[C@H](NC(=O)[C@H](CCCCN)NC(=O)[C@H](CC(=O)O)NC(=O)[C@H](CC(C)C)NC(=O)[C@H](CC(C)C)NC(=O)[C@@H](NC(=O)[C@H](CO)NC(=O)[C@H](Cc1ccc(O)cc1)NC(=O)[C@H](CC(=O)O)NC(=O)[C@H](CO)NC(=O)[C@@H](NC(=O)[C@H](Cc1ccccc1)NC(=O)[C@@H](NC(=O)CNC(=O)[C@H](CCC(=O)O)NC(=O)C(C)(C)NC(=O)[C@@H](N)Cc1ccc(O)cc1)[C@@H](C)O)[C@@H](C)O)[C@@H](C)CC)C(=O)N[C@@H](C)C(=O)N[C@@H](CCC(N)=O)C(=O)NC(C)(C)C(=O)N[C@@H](C)C(=O)N[C@@H](Cc1ccccc1)C(=O)N[C@H](C(=O)N[C@@H](CCC(=O)O)C(=O)N[C@@H](Cc1ccc(O)cc1)C(=O)N[C@@H](CC(C)C)C(=O)N[C@H](C(=O)N[C@@H](CCC(=O)O)C(=O)NCC(=O)NCC(=O)N1CCC[C@H]1C(=O)N[C@@H](CO)C(=O)N[C@@H](CO)C(=O)NCC(=O)N[C@@H](C)C(=O)N1CCC[C@H]1C(=O)N[C@@H](CCCCNC(=O)COCCOCCNC(=O)COCCOCCNC(=O)CC[C@H](NC(=O)CCCCCCCCCCCCCCCCCCC(=O)O)C(=O)O)C(=O)N1CCC[C@H]1C(=O)N[C@@H](CO)C(N)=O)[C@@H](C)CC)[C@@H](C)CC
B6: Example 49 (peptide)
peptide: Y[Aib]EGTFTSDYSILLDKIAQ[Aib]AFIEYLIEGGPSSGAPPPSK([AEEA-AEEA-γGlu-C20 diacid])-NH2
modifications: N-terminus assumed
SMILES: CC[C@H](C)[C@H](NC(=O)[C@H](CCCCN)NC(=O)[C@H](CC(=O)O)NC(=O)[C@H](CC(C)C)NC(=O)[C@H](CC(C)C)NC(=O)[C@@H](NC(=O)[C@H](CO)NC(=O)[C@H](Cc1ccc(O)cc1)NC(=O)[C@H](CC(=O)O)NC(=O)[C@H](CO)NC(=O)[C@@H](NC(=O)[C@H](Cc1ccccc1)NC(=O)[C@@H](NC(=O)CNC(=O)[C@H](CCC(=O)O)NC(=O)C(C)(C)NC(=O)[C@@H](N)Cc1ccc(O)cc1)[C@@H](C)O)[C@@H](C)O)[C@@H](C)CC)C(=O)N[C@@H](C)C(=O)N[C@@H](CCC(N)=O)C(=O)NC(C)(C)C(=O)N[C@@H](C)C(=O)N[C@@H](Cc1ccccc1)C(=O)N[C@H](C(=O)N[C@@H](CCC(=O)O)C(=O)N[C@@H](Cc1ccc(O)cc1)C(=O)N[C@@H](CC(C)C)C(=O)N[C@H](C(=O)N[C@@H](CCC(=O)O)C(=O)NCC(=O)NCC(=O)N1CCC[C@H]1C(=O)N[C@@H](CO)C(=O)N[C@@H](CO)C(=O)NCC(=O)N[C@@H](C)C(=O)N1CCC[C@H]1C(=O)N1CCC[C@H]1C(=O)N1CCC[C@H]1C(=O)N[C@@H](CO)C(=O)N[C@@H](CCCCNC(=O)COCCOCCNC(=O)COCCOCCNC(=O)CC[C@H](NC(=O)CCCCCCCCCCCCCCCCCCC(=O)O)C(=O)O)C(N)=O)[C@@H](C)CC)[C@@H](C)CC

Each binder was assayed against T1, human GIP receptor (assay: cell-based or functional assay).

| Binder | hGIPR cAMP EC50 ratio | hGIPR cAMP Rel EC50 [nM] |
| --- | --- | --- |
| B1 | 0.863 | 0.168 |
| B2 | 1.96 | 0.0794 |
| B3 | 0.654 | 0.287 |
| B4 | 1.75 | 0.106 |
| B5 | 0.828 | 0.172 |
| B6 | 1.69 | 0.0868 |

Each binder was assayed against human GLP-1 receptor (human, UniProt P43220 24-463) (assay: cell-based or functional assay).

| Binder | hGLP1R cAMP EC50 ratio | hGLP1R cAMP Rel EC50 [nM] |
| --- | --- | --- |
| B1 | 0.0966 | 0.691 |
| B2 | 0.675 | 0.0961 |
| B3 | 0.089 | 0.702 |
| B4 | 0.0569 | 1.03 |
| B5 | 0.0969 | 0.687 |
| B6 | 0.112 | 0.597 |
